In patent EP3912994A1:

Tests used:
[1] = target: Tenascin-C (TNC), recombinant full length; test: SPR (Biacore 2000), TNC immobilised on CM5 chip, 1:1 Langmuir model
[2] = target: Tenascin-C (TNC) expressed by the NT193M tumor cell (mouse) (UniProt Q80YX1); test: cell-based or functional assay
[3] = target: fibronectin type III domains 1-5 of human tenascin-C (human) (UniProt P24821); test: ELISA, TN1-5 coated, biotinylated FN12-14 titrated 1 nM to 1 µM
fibronectin type III domains 1-5 of human tenascin-C (human), sequence (P24821 625-1075, form in doubt): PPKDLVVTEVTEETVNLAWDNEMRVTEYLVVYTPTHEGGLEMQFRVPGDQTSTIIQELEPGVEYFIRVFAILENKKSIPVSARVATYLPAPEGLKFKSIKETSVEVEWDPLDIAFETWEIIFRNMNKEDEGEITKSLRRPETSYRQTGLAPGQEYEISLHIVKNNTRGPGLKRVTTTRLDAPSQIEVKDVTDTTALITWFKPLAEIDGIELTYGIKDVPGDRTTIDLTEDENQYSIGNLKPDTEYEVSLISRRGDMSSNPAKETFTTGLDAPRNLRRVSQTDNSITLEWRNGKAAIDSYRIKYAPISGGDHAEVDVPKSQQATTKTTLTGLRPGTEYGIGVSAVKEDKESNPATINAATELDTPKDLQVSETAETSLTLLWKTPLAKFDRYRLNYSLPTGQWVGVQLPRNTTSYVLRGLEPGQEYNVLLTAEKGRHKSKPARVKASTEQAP

Tenascin-C (TNC) expressed by the NT193M tumor cell (mouse), sequence (Q80YX1 23-2110 limits assumed): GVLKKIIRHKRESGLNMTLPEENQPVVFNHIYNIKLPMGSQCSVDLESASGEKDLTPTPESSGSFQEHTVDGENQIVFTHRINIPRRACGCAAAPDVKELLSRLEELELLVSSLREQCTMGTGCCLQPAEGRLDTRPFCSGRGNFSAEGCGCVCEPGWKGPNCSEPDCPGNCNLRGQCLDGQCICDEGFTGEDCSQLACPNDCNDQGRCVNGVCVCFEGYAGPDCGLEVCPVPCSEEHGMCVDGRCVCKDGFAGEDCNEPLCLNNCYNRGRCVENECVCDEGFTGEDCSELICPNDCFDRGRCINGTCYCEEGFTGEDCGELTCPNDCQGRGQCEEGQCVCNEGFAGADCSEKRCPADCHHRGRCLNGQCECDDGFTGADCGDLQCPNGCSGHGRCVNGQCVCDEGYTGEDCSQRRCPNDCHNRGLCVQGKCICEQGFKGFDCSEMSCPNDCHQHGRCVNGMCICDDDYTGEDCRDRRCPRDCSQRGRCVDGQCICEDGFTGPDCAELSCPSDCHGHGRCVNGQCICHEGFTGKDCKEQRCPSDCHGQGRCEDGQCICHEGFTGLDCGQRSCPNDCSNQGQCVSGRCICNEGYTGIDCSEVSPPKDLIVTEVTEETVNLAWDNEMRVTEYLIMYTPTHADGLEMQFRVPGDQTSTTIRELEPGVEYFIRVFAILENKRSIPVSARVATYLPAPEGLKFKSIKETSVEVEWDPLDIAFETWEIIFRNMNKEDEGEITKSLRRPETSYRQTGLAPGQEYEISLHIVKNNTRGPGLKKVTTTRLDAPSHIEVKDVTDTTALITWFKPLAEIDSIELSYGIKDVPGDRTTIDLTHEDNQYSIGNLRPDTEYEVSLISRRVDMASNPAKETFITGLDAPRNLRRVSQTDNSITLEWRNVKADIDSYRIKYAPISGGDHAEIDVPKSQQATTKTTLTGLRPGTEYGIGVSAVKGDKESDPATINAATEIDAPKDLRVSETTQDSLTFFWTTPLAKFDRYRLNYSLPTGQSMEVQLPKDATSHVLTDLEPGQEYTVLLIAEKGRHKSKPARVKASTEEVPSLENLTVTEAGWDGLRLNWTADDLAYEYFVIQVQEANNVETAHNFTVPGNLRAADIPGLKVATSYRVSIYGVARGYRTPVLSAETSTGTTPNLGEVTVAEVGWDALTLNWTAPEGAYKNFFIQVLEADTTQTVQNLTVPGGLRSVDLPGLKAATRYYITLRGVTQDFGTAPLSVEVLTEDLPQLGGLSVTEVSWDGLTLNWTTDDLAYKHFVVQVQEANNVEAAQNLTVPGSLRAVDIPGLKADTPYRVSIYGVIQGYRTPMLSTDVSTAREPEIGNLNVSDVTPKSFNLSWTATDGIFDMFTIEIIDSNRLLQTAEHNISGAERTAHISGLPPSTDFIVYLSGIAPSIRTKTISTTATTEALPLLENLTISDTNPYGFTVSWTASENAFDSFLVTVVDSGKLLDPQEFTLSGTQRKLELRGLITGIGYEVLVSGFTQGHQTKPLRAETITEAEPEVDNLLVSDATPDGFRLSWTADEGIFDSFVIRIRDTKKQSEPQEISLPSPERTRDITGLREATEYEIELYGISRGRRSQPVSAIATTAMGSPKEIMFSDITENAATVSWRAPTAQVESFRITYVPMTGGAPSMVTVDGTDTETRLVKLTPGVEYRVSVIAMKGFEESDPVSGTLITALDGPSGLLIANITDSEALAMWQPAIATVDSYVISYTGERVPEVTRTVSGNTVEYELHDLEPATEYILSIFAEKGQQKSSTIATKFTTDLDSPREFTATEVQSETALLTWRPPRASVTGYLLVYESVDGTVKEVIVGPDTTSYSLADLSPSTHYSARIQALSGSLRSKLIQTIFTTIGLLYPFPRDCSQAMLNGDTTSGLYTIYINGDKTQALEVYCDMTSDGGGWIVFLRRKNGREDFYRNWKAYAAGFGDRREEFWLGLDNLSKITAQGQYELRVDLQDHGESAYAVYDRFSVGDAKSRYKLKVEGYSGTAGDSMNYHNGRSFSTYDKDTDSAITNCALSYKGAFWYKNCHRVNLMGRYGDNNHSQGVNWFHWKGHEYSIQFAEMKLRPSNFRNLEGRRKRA

Kd [1] | Kd [3] | Substance | TRAIL-induced killing of NT193M cells [2]
58 nM | – | CCL21 (R&D Systems 457-6C) (from UniProt P84444 24-133) (ligand) | –
790 nM | – | CXCL12 (R&D Systems 460-SD-050) (from UniProt P40224 22-89) (ligand) | –
2.8 nM | – | Mouse recombinant SU… (Enzo Lifesciences ALX-201-130-C020) (from UniProt P50592 99-291) (ligand) | 5%
– | 52 nM | fibronectin type III domains 12-14 of human fibronectin (double Strep-tagged) (from UniProt P02751 1635-1908) | –
